Reference: IntAct's records for PubMed 20173742

B1: Kelch-like ECH-associated protein 1 (Mus musculus), Q9Z2X8 (parent)
chain: MQPEPKLSGAPRSSQFLPLWSKCPEGAGDAVMYASTECKAEVTPSQDGNRTFSYTLEDHTKQAFGVMNELRLSQQLCDVTLQVKYEDIPAAQFMAHKVVLASSSPVFKAMFTNGLREQGMEVVSIEGIHPKVMERLIEFAYTASISVGEKCVLHVMNGAVMYQIDSVVRACSDFLVQQLDPSNAIGIANFAEQIGCTELHQRAREYIYMHFGEVAKQEEFFNLSHCQLATLISRDDLNVRCESEVFHACIDWVKYDCPQRRFYVQALLRAVRCHALTPRFLQTQLQKCEILQADARCKDYLVQIFQELTLHKPTQAVPCRAPKVGRLIYTAGGYFRQSLSYLEAYNPSNGSWLRLADLQVPRSGLAGCVVGGLLYAVGGRNNSPDGNTDSSALDCYNPMTNQWSPCASMSVPRNRIGVGVIDGHIYAVGGSHGCIHHSSVERYEPERDEWHLVAPMLTRRIGVGVAVLNRLLYAVGGFDGTNRLNSAECYYPERNEWRMITPMNTIRSGAGVCVLHNCIYAAGGYDGQDQLNSVERYDVETETWTFVAPMRHHRSALGITVHQGKIYVLGGYDGHTFLDSVECYDPDSDTWSEVTRMTSGRSGVGVAVTMEPCRKQIDQQNCTC
partner: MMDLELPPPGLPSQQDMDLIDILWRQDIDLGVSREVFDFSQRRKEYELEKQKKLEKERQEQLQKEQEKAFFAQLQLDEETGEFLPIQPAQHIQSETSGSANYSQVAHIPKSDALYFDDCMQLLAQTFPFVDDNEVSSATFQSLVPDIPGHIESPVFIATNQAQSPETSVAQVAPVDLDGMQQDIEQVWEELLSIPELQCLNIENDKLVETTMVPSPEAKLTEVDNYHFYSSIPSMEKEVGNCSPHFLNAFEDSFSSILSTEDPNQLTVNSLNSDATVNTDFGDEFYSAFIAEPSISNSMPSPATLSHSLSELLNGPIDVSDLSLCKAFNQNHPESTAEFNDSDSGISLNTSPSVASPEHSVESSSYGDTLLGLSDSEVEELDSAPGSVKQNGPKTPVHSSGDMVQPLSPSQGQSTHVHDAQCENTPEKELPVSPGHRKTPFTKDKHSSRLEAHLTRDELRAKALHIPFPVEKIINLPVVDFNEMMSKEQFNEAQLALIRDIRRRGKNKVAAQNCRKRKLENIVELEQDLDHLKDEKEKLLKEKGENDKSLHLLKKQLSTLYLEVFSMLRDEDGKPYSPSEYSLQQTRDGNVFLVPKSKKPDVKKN

Variants of: B1
Details: with nf2l2_human NFE2L2, Q16236

Row | Variant | effect of a mutation on the interaction
1 | R415A | disrupting interaction
2 | S363A | disrupting interaction
3 | S602A | disrupting interaction
4 | S508A | disrupting interaction
5 | Y334A | disrupting interaction
6 | N382A | disrupting interaction
7 | S555A | decreasing interaction
8 | R380A | decreasing interaction
9 | Q530A | decreasing interaction
